The test has as its target T1, murine Flt3 (R&D 768-F3-050) (murine, UniProt Q00342 28-544).
T1 construct: Bought recombinant protein coated on the ELISA plate; also called receptor for Flt3L; recombinant CD135
T1 sequence (looked up): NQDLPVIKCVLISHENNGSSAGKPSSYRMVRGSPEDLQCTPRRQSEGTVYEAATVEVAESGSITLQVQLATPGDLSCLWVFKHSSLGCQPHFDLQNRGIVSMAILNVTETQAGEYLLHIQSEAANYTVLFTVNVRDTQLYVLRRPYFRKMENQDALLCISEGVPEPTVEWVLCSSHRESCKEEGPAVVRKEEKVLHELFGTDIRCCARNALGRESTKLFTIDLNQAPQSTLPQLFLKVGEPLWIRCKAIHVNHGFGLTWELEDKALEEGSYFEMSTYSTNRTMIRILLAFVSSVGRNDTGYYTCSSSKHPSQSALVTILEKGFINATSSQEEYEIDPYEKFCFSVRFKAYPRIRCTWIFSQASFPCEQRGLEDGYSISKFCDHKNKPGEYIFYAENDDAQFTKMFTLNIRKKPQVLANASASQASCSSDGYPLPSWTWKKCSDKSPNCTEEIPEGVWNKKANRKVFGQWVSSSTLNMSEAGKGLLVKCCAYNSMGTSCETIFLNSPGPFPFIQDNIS
Nature of the test: ELISA: plate coated with murine Flt3, Flt3L variants titrated, detection with biotinylated anti-Flt3L and avidin-HRP. How it is done:
Protein was cloned, produced, and purified as described in methods. Following purification, bands were confirmed at the expected sizes via SDS-PAGE under reducing conditions (WT at around 30 KDa with multiple bands due to glycosylation differences and Flt3L-MSA at around 75 KDa). Binding of each protein to the receptor for Flt3L (murine Flt3, R&D 768-F3-050) was then confirmed via ELISA. Briefly, high binding plates were coated overnight with 50 μL of 1 nM protein in a Carb/Bicarb buffer pH of 9. The plates were then washed and blocked using R&D blocking buffer before the addition of Flt3L variants at different concentrations in blocking buffer. Detection occurred using biotinylated αFlt3L and subsequent incubation with avidin-HRP. Binding was then visualized via incubation with TMB solution until highest concentrations reached an approximate absorbance of 1 and the reaction was stopped using 2N H2SO4.
High-bind plates (Corning #9018) were coated by incubating overnight at 4 C with 10 nM recombinant CD135 (R&D 768-F3-050) in […] sodium bicarbonate buffer at pH 9.2. Following coating, plates were washed in PBST before blocking in 1× reagent diluent (R&D DY995) for 2 hours at RT. Samples were then diluted to the indicated concentration in triplicate using the same reagent diluent. […] Quantification occurred by reading the absorbance at 450 nm and 570 nm.

The Kd is the constant that tells how readily two partners part at equilibrium. The low end stands for higher affinity, the high end for lower affinity.

B1: Flt3L fused to Mouse Serum Albumin (Flt3L-MSA) (other)
chain: MTPDCYFSHSPISSNFKVKFRELTDHLLKDYPVTVAVNLQDEKHCKALWSLFLAQRWIEQLKTVAGSKMQTLLEDVNTEIHFVTSCTFQPLPECLRFVQTNISHLLKDTCTQLLALKPCIGKACQNFSRCLEVQCQPDSSTLLPPRSPIALEATELPEPRPRQGGGGSGGGGSEAHKSEIAHRYNDLGEQHFKGLVLIAFSQYLQKCSYDEHAKLVQEVTDFAKTCVADESAANCDKSLHTLFGDKLCAIPNLRENYGELADCCTKQEPERNECFLQHKDDNPSLPPFERPEAEAMCTSFKENPTTFMGHYLHEVARRHPYFYAPELLYYAEQYNEILTQCCAEADKESCLTPKLDGVKEKALVSSVRQRMKCSSMQKFGERAFKAWAVARLSQTFPNADFAEITKLATDLTKVNKECCHGDLLECADDRAELAKYMCENQATISSKLQTCCDKPLLKKAHCLSEVEHDTMPADLPAIAADFVEDQEVCKNYAEAKDVFLGTFLYEYSRRHPDYSVSLLLRLAKKYEATLEKCCAEANPPACYGTVLAEFQPLVEEPKNLVKTNCDLYEKLGEYGFQNAILVRYTQKAPQVSTPTLVEAARNLGRVGTKCCTLPEDQRLPCVEDYLSAILNRVCLLHEKTPVSEHVTKCCSGSLVERRPCFSALTVDETYVPKEFKAETFTFHSDICTLPEKEKQIKKQTALAELVKHKPKATAEQLKTVMDDFAQFLDTCCKAADKDTCFSTEGPNLVTRCKDALAHHHHHH
notes: also called MSA fused Flt3L; Flt3L-SA
As for B1, the dissociation constant (Kd) came to 0.16 nM.

B2: wild type murine Flt3L (ligand)
chain: MTPDCYFSHSPISSNFKVKFRELTDHLLKDYPVTVAVNLQDEKHCKALWSLFLAQRWIEQLKTVAGSKMQTLLEDVNTEIHFVTSCTFQPLPECLRFVQTNISHLLKDTCTQLLALKPCIGKACQNFSRCLEVQCQPDSSTLLPPRSPIALEATELPEPRPRQ
notes: Made in HEK293F cells and glycosylated (multiple bands around 30 kDa); also called WT Flt3L; WT; not shown: it was purified over a HisTrap HP column, so it probably carries a His tag
In turn, B2 had a Kd of 0.16 nM.

For the origin of these results see patent publication US20250340607A1 (UNIVERSITY OF CHICAGO, published 2025).
